The assay addresses T1, recombinant human α5β1 ECD heterodimer (human, UniProt P08648 42-995; P05556 21-728).
T1 construct: integrin α5, human, extracellular domain; integrin β1, human, extracellular domain; also called recombinant heterodimer of integrin ECD (α5β1); source: bought: R&D Systems (3230-A5-050)
The assay is described as follows: pull-down; TMEM2–ECD-His6 (about 5 μg/20 μl) held on ProBond nickel chelating resin; 2 μg recombinant integrin ECD heterodimer incubated in HBSS++ overnight at 4 °C; control unbound resin; blots. The settings on record: both partners purified.

T1 sequence (P08648 42-995, chain 1 of 2): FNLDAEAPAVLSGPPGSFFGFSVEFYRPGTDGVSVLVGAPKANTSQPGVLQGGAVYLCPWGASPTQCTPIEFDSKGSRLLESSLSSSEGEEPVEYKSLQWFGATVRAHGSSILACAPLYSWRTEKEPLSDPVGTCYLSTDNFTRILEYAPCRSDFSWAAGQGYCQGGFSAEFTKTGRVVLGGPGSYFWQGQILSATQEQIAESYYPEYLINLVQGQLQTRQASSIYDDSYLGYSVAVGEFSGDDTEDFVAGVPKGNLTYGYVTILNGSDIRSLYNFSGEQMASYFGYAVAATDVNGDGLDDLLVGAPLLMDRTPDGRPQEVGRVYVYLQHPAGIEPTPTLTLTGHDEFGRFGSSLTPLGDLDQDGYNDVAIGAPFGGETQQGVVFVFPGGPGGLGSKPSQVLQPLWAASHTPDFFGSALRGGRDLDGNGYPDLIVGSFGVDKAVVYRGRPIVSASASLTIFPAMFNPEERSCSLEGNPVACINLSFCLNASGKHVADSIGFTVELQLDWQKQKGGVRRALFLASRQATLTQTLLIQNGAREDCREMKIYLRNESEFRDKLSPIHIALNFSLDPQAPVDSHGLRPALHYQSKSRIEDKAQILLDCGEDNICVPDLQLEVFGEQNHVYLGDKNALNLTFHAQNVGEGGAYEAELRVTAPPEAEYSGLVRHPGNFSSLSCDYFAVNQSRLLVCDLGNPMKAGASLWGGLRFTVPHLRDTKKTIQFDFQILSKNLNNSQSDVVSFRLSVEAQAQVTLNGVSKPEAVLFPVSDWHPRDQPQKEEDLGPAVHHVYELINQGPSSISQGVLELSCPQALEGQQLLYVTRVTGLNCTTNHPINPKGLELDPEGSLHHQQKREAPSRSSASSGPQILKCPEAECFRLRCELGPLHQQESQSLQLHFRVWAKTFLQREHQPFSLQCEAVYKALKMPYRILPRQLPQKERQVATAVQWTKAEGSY
T1 sequence (P05556 21-728, chain 2 of 2): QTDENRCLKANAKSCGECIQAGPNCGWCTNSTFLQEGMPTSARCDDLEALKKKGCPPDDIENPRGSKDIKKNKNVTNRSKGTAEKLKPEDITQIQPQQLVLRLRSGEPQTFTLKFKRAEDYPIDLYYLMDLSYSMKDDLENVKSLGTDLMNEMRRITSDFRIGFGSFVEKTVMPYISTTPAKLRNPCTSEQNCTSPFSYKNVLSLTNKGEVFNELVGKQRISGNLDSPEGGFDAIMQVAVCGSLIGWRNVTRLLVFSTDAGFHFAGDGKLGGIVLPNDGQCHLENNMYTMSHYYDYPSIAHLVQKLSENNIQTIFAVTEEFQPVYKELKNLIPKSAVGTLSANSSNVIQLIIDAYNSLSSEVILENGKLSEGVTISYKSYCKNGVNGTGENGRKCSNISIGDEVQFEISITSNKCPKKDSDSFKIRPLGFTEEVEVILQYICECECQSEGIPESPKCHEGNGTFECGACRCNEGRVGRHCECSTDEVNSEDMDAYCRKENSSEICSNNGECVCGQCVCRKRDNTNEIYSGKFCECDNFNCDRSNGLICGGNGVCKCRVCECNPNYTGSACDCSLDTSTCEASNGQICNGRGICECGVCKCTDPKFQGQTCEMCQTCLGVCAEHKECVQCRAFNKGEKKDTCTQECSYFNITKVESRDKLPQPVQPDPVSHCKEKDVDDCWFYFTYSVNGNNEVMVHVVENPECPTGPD

B1: recombinant soluble TMEM2 extracellular domain, 6x His-tagged (domain or fragment, mouse, UniProt Q5FWI3 104-1383, looked up)
chain: SSKYAPDENCPDQNPRLRNWDPGQDSAKHIVIKEGDLFRLTSDATVDSIVIQDGGLLVFGDDKDGSKNITLRTRYILIQDGGALHIGAEKCRYRSKATITLYGKSDERESMPIFGKKFIGVEAGGTLELHGAQRTSWTMLARTLHSSGLPFGSYAFEKDFSRGLNVRVIDQDTARVLENEKFDTHEYHNESRRLQEFLRAQEPGRIVAIAVGDSAVKSLLQGTIQMIQDRLGSKLIQGLGYRQAWALVGVIDGGSSSCNESVRNYENHSTGGKALAQGEFYTLDGQKFSVTAYSEWSQGISLSGFRVDIADGVKLHLLDDVSTWEAGDRIVVASTDYSMYQAEELTLLRCPECSRSQVKVKEIPQYLHVGEIIDGIDMRAEVGLLTRNIVIQGEMEDSCYAENHCQFFDYDTFGGHVMIEKNFTSVHLSYVELKHMGQQHMGRYPVHFHLCGDVDSKGGYSQPASVDGLSVHHSFSRCITVHGTSGLLIKDTIGFDTLGHCFFLEDGVEQRNILYHNLGLLTKPGTLLPTDRNSSMCTVMRDGVFGNYVPVPTTDCMAVSTFWIAHPNNHLINNAAAGSQDAGIWYLFHKEPTGESSGLQLLEKPELTPLGIFYNNRVHSNFKAGLFVDKGVKTTNASASDPREYLCLDNSARFRPHQDADPEKPRVAAIIDRLIAFKNNDNGAWVRGGDIIVQNSAFADNGKGLTFASDGSFPSDEGSSQEVTESLFVGESRNYGFQGGQNKYMGTGGIDQKPRTLPRNRTFPIRGFQIYDGPIHLTKSTFKKYVPTPDRYSSAIGFLMKNSWQTTPRNNVSLVKFGPQVSLNVFFGKPGPWFEDCELDGDKNSIFHDIDGSVTGYKDTYVGRMDNYLIRHPNCVNVTKWNAVICSGTYAQVYVQTWNTPNLSMIITRDEYPSHPMVLRGINQRAISPQYQPVVMLEKGYTIHWNGPAPRTTFLYLVNFNKDDWIRVGLCYPANTSFQVTVGFLQRQNGSLSRIEDYEPARSMEELQKKPSERKFYFDSGTGLLFLYLRAHSHRDGHSYCSSQGCERVKIQAATDSKDISNCMAKAYPQYYKKPSAVKRMPAMLTGLCQGCGTHQMVFTSDPHKSYLPVRFQSPGKAEIQRGDPSIISVNGTDFTFRSAGALLLIVDACSVPFRVKEKRMFLSADVSHMEEYFKASIPPRSIVLLSTRGEIKQLNISDSLAVLGLAKPAHLYSKGSVVFLGFSGNFAPSWTKLFTSPDEQGLGVLEQFLPLQMEEYGCSRTGSVHRRDLDLLQQALKVL
notes: transmembrane protein 2 (TMEM2; CEMIP2), mouse, extracellular domain Ser104–Leu1383; in pSecTag2A with the C-terminal Myc peptide removed; the vector supplies a secretion leader (surmised); also called TMEM2 ECD; TMEM2–ECD; not shown: His6, C-terminal, kept
Turning to B1, the binding result is listed as “binds”.

These data come from PMC8042168, “The cell surface hyaluronidase TMEM2 regulates cell adhesion and migration via degradation of hyaluronan at focal adhesion sites” (The Journal of Biological Chemistry, 2021).
